Reference: patent US20250066456A1 (NOVAVAX, published 2025)
Read-outs that look alike come from different tables or passages of the source.

Experiments:
[1] = biological target: T1, BV2425 (recombinant CoV S glycoprotein, Alpha) (SARS-CoV-2, UniProt P0DTC2 14-1273); test: ELISA, plate coated with rS, serial dilution of the mAb, anti-mouse HRP, A450
[2] = biological target: T2, BV2443 (recombinant CoV S glycoprotein, Gamma) (SARS-CoV-2, UniProt P0DTC2 14-1273); test: as above
[3] = biological target: T3, BV2465 (recombinant CoV S glycoprotein, Delta) (SARS-CoV-2, UniProt P0DTC2 14-1273); test: as above
[4] = biological target: T4, BV2438 (recombinant CoV S glycoprotein, Beta) (SARS-CoV-2, UniProt P0DTC2 14-1273); test: as above
[5] = biological target: T5, BV2509 (recombinant CoV S glycoprotein, BA.1) (SARS-CoV-2, UniProt P0DTC2 14-1273); test: as above
[6] = biological target: BV2589 (recombinant CoV S glycoprotein, BQ.1.1) (SARS-CoV-2, UniProt P0DTC2 14-1273); test: BLI, antibody on anti-mouse Fc biosensor, rS analyte
[7] = biological target: BV2541 (recombinant CoV S glycoprotein, BA.4) (SARS-CoV-2, UniProt P0DTC2 14-1273); test: ELISA on coated rS
[8] = biological target: T6, BV2562 (recombinant CoV S glycoprotein, BA.4.6) (SARS-CoV-2, UniProt P0DTC2 14-1273); test: ELISA on coated rS
[9] = biological target: BV2561 (recombinant CoV S glycoprotein, BA.2.75) (SARS-CoV-2, UniProt P0DTC2 14-1273); test: ELISA on coated rS
[10] = biological target: T5, BV2509 (recombinant CoV S glycoprotein, …); test: ELISA on coated rS
[11] = biological target: T1, BV2425 (recombinant CoV S glycoprotein, …); test: hACE2 receptor inhibition ELISA on coated rS; competitor hACE2-His
[12] = biological target: BV2373 (recombinant CoV S glycoprotein, Prototype) (SARS-CoV-2, UniProt P0DTC2 14-1273); test: as above
[13] = biological target: T2, BV2443 (recombinant CoV S glycoprotein, …); test: as above
[14] = biological target: T3, BV2465 (recombinant CoV S glycoprotein, …); test: as above
[15] = biological target: T4, BV2438 (recombinant CoV S glycoprotein, …); test: as above
[16] = biological target: T5, BV2509 (recombinant CoV S glycoprotein, …); test: as above
[17] = biological target: T1, BV2425 (recombinant CoV S glycoprotein, …); test: ELISA, plate coated with rS, serial dilution of the mAb, anti-mouse HRP, A450; remark: listed apart in the source
[18] = biological target: T2, BV2443 (recombinant CoV S glycoprotein, …); test: as above; remark: listed apart in the source
[19] = biological target: T3, BV2465 (recombinant CoV S glycoprotein, …); test: as above; remark: listed apart in the source
[20] = biological target: T4, BV2438 (recombinant CoV S glycoprotein, …); test: as above; remark: listed apart in the source
[21] = biological target: T5, BV2509 (recombinant CoV S glycoprotein, …); test: as above; remark: listed apart in the source
[22] = biological target: BV2457 (rS India)
[23] = biological target: T7, Delta Plus CoV S glycoprotein (recombinant) (Severe acute respiratory syndrome …, UniProt P0DTC2 14-1273)
[24] = biological target: T6, BV2562 (recombinant CoV S glycoprotein, …)
[25] = biological target: T7, Delta Plus CoV S glycoprotein …; test: hACE2 receptor inhibition ELISA on coated rS; competitor hACE2-His

Row | Binder | Kd [6] | EC50 [7] | EC50 [8] | EC50 [9] | EC50 [10] | IC50 [11] | IC50 [12] | IC50 [13] | IC50 [14] | IC50 [15] | IC50 [16] | other results
1 | 322.3 (antibody, V domains shown) VH: RVQLQQSGPELVKPGASVTISCKASGYIFTSDYIHWVKQRPGQGPEWIGWIYPGNINTKYNEKFKGKATLTADKSSSTAYMQLSSLTSEDSAVYFCARDDGNLYYYAMDYWGQGTSVTVSS VL: NIVLTQSPASLAVSLGQRATISCRASESVDSYGSSFMHWYQQKPGQPPKLLIYLASNLESGVPARFSGSGSRTDFTLTIDPVEADDAATYYCQQNNEDPRTFGGGTKLEIK | 1.63 pM | 0.082 µg/mL | 0.117 µg/mL | 0.144 µg/mL | 0.197 µg/mL |  |  |  |  |  |  | EC50 [1]: 0.085 µg/mL; EC50 [2]: 0.084 µg/mL; EC50 [3]: 0.082 µg/mL; EC50 [4]: 0.084 µg/mL; EC50 [5]: 0.144 µg/mL
2 | 425.6 (antibody, V domains shown) VH: VQLKQSGPSLVQPSQSLSITCTVSGFSLTSYGIHWVRQSPGKGLEWLGVIWRGGSTDYNAAFMSRLTITKDNSKSQVFFKMNSLQADDTAIYYCATHTEGDDVDYWGQGTSVTVSS VL: QIVLTQSPAIMSVSPGEKVTMTCSASSTMSFMYWYQQKPGSSPRLLIYDTSNLASGVPVRFSGSGSGTSYSLTISRVEAEDAATYYCQQWNTYPLTFGAGTKLELKR |  | 0.016 µg/mL | 0.021 µg/mL |  |  | 0.1 µg/mL | 0.064 µg/mL | 0.048 µg/mL | 0.069 µg/mL | 0.048 µg/mL | > 3 µg/mL | EC50 [17]: 0.011 µg/mL; EC50 [18]: 0.01 µg/mL; EC50 [19]: 0.012 µg/mL; EC50 [20]: 0.011 µg/mL; EC50 [21]: > 1 µg/mL; Kd [22]: < 1 pM; koff [22]: 1.88e-07 s⁻¹; kon [22]: 117000 M⁻¹ s⁻¹; EC50 [23]: 0.0098 µg/mL
3 | 35.13 (antibody, V domains shown) VH: QVQLQQSGAELGKPGASVKLSCRASGYTFTRYYIYWVKQRPGQGLEWIGEINPSNGDTHFNEKFKTKATLTVDKSSSSAHIHLTSLTSEDSAVYYCSIHAYSFDFWGQGTTLTVSS VL: EIQMTQSPSSMSASLGDRITITCQATQDIVKNLNWYQQKPGKPPSFLIYHATELAKGVPSRFSGSGSGSDYSLTISNLESEDFADYYCLQFYDFPFTFGAGTKLELKR | < 1 pM |  |  | 0.048 µg/mL | 0.038 µg/mL | 0.142 µg/mL | 0.074 µg/mL | 0.07 µg/mL | 0.098 µg/mL | 0.922 µg/mL | 0.102 µg/mL | IC50 [24]: > 3 µg/mL; IC50 [25]: 0.065 µg/mL; koff [6]: < 1e-07 s⁻¹; kon [6]: 26900 M⁻¹ s⁻¹
